Positions of bridges follow the written chain, without caps; N, C: chain ends. Non-standard residues stand in square brackets, D forms with d. Primed or numbered codes have the meaning given here. Chains are numbered I, II in the order given. *: point of attachment. dibenzylether crosslinker″ = crosslinker alkylating both cysteine thiols, drawn in Scheme 1 and; dibenzylether crosslinker = scaffold alkylating both cysteine thiols (drawn in Scheme 1 and; dibenzylether crosslinker(3) = scaffold alkylating both cysteine thiols (Scheme 1; FITC = O=C1OC2(c3ccc(O)cc3Oc3cc(O)ccc32)c2ccc(NC(=S)*)cc21; FITC′ = fluorescein isothiocyanate, linked via thiourea; βAla = NCCC(=O)O

The target of assay [1] is T1, fluorescently-labeled wild-type H-Ras-GDP (MST) (UniProt P01112 1-166, cysteine-reactive dye (Monolith RED-MALEIMIDE 2nd Generation or AFDye 647 maleimide) on cysteine, degree of label 0.43).
T1 construct: range 1-166; also called fluorescently-labeled Ras; wild-type H-Ras labeled with AFDye 647; not shown: N-terminal His6 tag from pProEx HTb
Put plainly: microscale thermophoresis (column MST of the drawn table); fluorescently labelled wild-type H-Ras-GDP with serial dilutions of the unlabelled CHD.

Assay [2] deals with T2, wild-type His6-tagged H-Ras (1-166) pre-loaded with GDP (UniProt P01112 1-166).
T2 construct: range 1-166; also called His6-H-Ras-GDP; not shown: N-terminal His6 tag with TEV site from the pProEx HTb vector
Put plainly: fluorescence polarization, fluorescein-labelled CHD, His6-H-Ras-GDP titrated.

Assay [3] addresses T2, wild-type His6-tagged H-Ras (1-166) …. The assay can be described thus: fluorescence polarization, fluorescein-labelled CHD (15 nM), His6-H-Ras-GDP titrated. (In fluorescence polarisation assays a small probe gives low polarisation when free and higher when bound to something large.)
Procedure: (§1) The generated binding affinity (KD) values for each compound are from biological triplicate studies and were determined via fitting to a sigmoidal dose-response nonlinear regression model on Graphpad Prism 6.
Assay [4] has the same target. The assay can be described thus: direct fluorescence polarization; fluorescein-labelled CHD titrated with GDP-loaded WT H-Ras.
Procedure: as §1

B1: CHD^Sos-3 (designed binder)
chain 1: Ac-AIGRLCTEILRLRNGA-NH2
chain 2: Ac-LAWRLRELERELARLC-NH2
modifications: linker I:6-II:16 via dibenzylether crosslinker(3)
notes: also called CHC^Sos-3; CHD-3
In the case of B1, the dissociation constant Kd (usually the concentration at which binding is half-saturated) in assay [1] is over 10 µM.

B2: FITC-CHD^Sos-2 (designed binder)
chain 1: Ac-WIGRLCTEILRLRNGN-NH2
chain 2: {FITC′}-A[βAla]LAWRLRELERELARLC-NH2
modifications: linker I:6-II:18 via dibenzylether crosslinker; not fully specified
notes: Crosslinked helix dimer; form used in the fluorescence polarization assay; also called CHC^Sos-2 (fluorescein-derivatized); CHD-2
For the molecule B2, in assay [2], the “fold enhancement in binding affinity over CHC^Sos-1” value stood at 10 fold. Besides, the values for the Kd in assay [3] and in assay [4] were 2.8 µM and 2.79 µM, respectively.

B3: FITC-CHD^Sos-4 (designed binder)
chain 1: Ac-WIGRLCTEILRLRNGN-NH2
chain 2: {FITC′}-A[βAla]LAWALRELERELARLC-NH2
modifications: linker I:6-II:18 via dibenzylether crosslinker; not fully specified
notes: Crosslinked helix dimer; form used in the fluorescence polarization assay; also called CHC^Sos-4 (fluorescein-derivatized); CHD-4
Take B3: the results for the Kd in assay [3] and in assay [4] were 40 µM and 40.4 µM, respectively.

B4: FITC-CHD^Sos-6 (designed binder)
chain 1: Ac-WIGRLCTEIRRLRNGN-NH2
chain 2: {FITC}-A[βAla]LAWRLRELERELARLC-NH2
modifications: linker I:6-II:18 via dibenzylether crosslinker″; not fully specified
notes: Crosslinked helix dimer; form used in the fluorescence polarization assay; also called CHC^Sos-6 (fluorescein-derivatized)
As for B4, the “fold reduction in affinity against CHC^Sos-5” value in assay [2] worked out at 4 fold. Besides, in assay [3], binding was characterised by a dissociation constant (Kd) of 8.6 µM.

The values above are taken from patent US20240124539A1 (NEW YORK UNIVERSITY, published 2024).
